Patent US20180142018A1 (NOVIMMUNE, published 2018)

T1: human CD19 (human, UniProt P15391 20-556)
T1 construct: whole, on cells; also called huCD19
T1 sequence (looked up): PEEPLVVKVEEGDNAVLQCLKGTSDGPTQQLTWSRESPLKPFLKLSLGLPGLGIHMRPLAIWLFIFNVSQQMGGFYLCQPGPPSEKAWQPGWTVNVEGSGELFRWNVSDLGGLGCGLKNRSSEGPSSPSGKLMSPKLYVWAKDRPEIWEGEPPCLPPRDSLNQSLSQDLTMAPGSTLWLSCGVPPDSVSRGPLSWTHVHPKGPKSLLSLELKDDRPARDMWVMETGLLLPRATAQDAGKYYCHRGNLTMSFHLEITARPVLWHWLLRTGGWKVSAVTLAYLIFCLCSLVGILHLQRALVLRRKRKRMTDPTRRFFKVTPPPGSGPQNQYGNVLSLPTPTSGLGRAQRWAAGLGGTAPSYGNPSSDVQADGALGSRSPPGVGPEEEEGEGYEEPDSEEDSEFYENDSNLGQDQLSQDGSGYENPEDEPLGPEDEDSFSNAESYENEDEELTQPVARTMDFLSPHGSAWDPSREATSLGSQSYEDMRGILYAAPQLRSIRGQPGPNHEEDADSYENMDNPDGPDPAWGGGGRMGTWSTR

T2: cynomolgus CD19 (cynomolgus monkey, UniProt A0A2K5W8L9 20-557)
T2 construct: whole, on cells; also called cynoCD19; cynomolgus monkey CD19
T2 sequence: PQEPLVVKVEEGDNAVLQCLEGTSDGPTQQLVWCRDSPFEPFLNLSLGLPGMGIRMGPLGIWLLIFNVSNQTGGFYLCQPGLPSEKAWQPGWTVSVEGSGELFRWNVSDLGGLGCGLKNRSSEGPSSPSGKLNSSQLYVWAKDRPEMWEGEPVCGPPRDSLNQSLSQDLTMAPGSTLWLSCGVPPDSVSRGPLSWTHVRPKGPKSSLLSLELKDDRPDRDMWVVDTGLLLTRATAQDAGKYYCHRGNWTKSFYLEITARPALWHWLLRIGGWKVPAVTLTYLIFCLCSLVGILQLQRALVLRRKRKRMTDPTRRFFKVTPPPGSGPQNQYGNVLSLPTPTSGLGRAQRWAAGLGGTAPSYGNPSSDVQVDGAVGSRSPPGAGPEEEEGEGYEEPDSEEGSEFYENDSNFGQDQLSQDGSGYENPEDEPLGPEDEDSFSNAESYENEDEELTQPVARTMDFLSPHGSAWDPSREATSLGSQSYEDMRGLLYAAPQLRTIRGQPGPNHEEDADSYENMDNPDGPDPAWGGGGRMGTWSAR


Assays:
human CD19 [1] = target: T1, human CD19; assay: FACS on human PBMC gated on CD20+ B lymphocytes, 30 and 3 µg/mL
Procedure: (§1) The ability of various anti-CD19 antibodies of the disclosure to bind various peripheral blood mononuclear cells (PBMC). Human and cynomolgus PBMC from frozen aliquots in citrate buffer were tested. […] The PBMC were labelled with anti-CD20-PE monoclonal antibody (mAb), anti-CD14-FITC mAb, and anti-CD3-PerCP mAb cross-reactive both to human and cynomolgus species. Cell surface bound hIgG1 were detected with a mouse anti-human IgG Fc-APC mAb. FACS gating was performed with the anti-CD20 mAb for the B lymphocyte population, with the anti-CD3 for the T lymphocyte population and with anti-CD14 for the monocyte population.

cynomolgus CD19 = target: T2, cynomolgus CD19; assay: FACS on PBMC CD20+ B lymphocytes; human over cynomolgus, told of the group of anti-CD19 antibodies
Procedure: as §1

human CD19 [2] = target: T1, human CD19; assay: FACS on human B lymphocyte cell lines (Raji, Ramos, Nalm6, Su-DHL6, Su-DHL4, Mec2); binding lost on CD19-silenced Raji siRNA
Procedure: The ability of various anti-CD19 antibodies of the disclosure to bind various human B lymphocyte cell lines was evaluated. In particular, the human IgG1 5F5, 7F11, 9G8, F6, 7F1, and 10D8 anti-CD19 antibodies were evaluated for their abilities to bind (i) six human B lymphocyte cell lines: Raji, Ramos, Nalm6, Su-DHL6, Su-DHL4, and Mec2, (ii) a CD19 silenced B cell line: Raji siRNA; and a negative cell line (Jurkat). All incubations were prepared in FACS buffer (PBS, BSA 2%) at 4° C. Fc receptors on B cells were blocked with 10% mouse serum. Four doses of hIgG1 were tested: 10, 1, 0.1 and 0.01 μg/mL. Cell surface bound hIgG1 were detected with a mouse anti-human IgG Fc-PE mAb.

| Binder | binding result (human CD19 [1]) | fold higher binding on human than on cynomolgus PBMC (cynomolgus CD19) [fold] | binding result (human CD19 [2]) |
| --- | --- | --- | --- |
| 7F11 antibody (antibody, human IgG1, V domains shown, also called human IgG1 7F11 anti-CD19 antibody) VH: EVQLVQSGAEVKKPGESLKISCKGSGYSFTSYWIGWVRQMPGKGLEWMGIIYPGDSDTRYSPSFQGQVTISADKSISTAYLQWSSLKASDTAMYYCARGVSGIYNLHGFDIWGQGTLVTVSS VL: DIQMTQSPSSLSASVGDRVTITCRASQSISSYLNWYQQKPGKAPKLLIYAASSLQSGVPSRFSGSGSGTDFTLTISSLQPEDFATYYCQQGMWDNPFTFGQGTKVEIK | binds | ≤ 10 | – |
| 9G8 antibody (antibody, human IgG1, V domains shown, also called human IgG1 9G8 anti-CD19 antibody) VH: EVQLVQSGAEVKKPGESLKISCKGSGYSFTSYWIGWVRQMPGKGLEWMGIIYPGDSDTRYSPSFQGQVTISADKSISTAYLQWSSLKASDTAMYYCARGVSGIYNLHGFDIWGQGTLVTVSS VL: DIQMTQSPSSLSASVGDRVTITCRASQSISSYLNWYQQKPGKAPKLLIYAASSLQSGVPSRFSGSGSGTDFTLTISSLQPEDFATYYCQQGRFGSPFTFGQGTKVEIK | binds | ≤ 10 | – |
| 5F5 antibody (antibody, human IgG1, V domains shown, also called human IgG1 5F5 anti-CD19 antibody) VH: EVQLVQSGAEVKKPGESLKISCKGSGYSFTSYWIGWVRQMPGKGLEWMGIIYPGDSDTRYSPSFQGQVTISADKSISTAYLQWSSLKASDTAMYYCARGISGIYNLHGFDIWGQGTLVTVSS VL: DIQMTQSPSSLSASVGDRVTITCRASQSISSYLNWYQQKPGKAPKLLIYAASSLQSGVPSRFSGSGSGTDFTLTISSLQPEDFATYYCQQASLDSPLTFGQGTKVEIK | – | ≤ 10 | binds |

Continued, values first:

| binding result (human CD19 [1]) | fold higher binding on human than on cynomolgus PBMC (cynomolgus CD19) [fold] | binding result (human CD19 [2]) | Binder |
| --- | --- | --- | --- |
| binds | – | – | 7F1 antibody (antibody, human IgG1, V domains shown, also called human IgG1 7F1 anti-CD19 antibody) VH: EVQLVQSGAEVKKPGESLKISCKGSGYSFTSYWIGWVRQMPGKGLEWMGIIYPGDSDTRYSPSFQGQVTISADKSISTAYLQWSSLKASDTAMYYCARGDYWTGFAYWGQGTLVTVSS VL: QSVLTQPPSVSAAPGQKVTISCSGSSSNIGNNYVSWYQQLPGTAPKLLIYDNNKRPSGIPDRFSGSKSGTSATLGITGLQTGDEADYYCGTWDLGWNSVFGGGTKLTVL |
| binds | – | – | 10D8 antibody (antibody, human IgG1, V domains shown, also called human IgG1 10D8 anti-CD19 antibody) VH: QVQLVQSGAEVKKPGSSVKVSCKASGGTFSSYAISWVRQAPGQGLEWMGGIIPIFGTANYAQKFQGRVTITADESTSTAYMELSSLRSEDTAVYYCARDRGYDYVWGSYRYGAFDIWGQGTLVTVSS VL: QSALTQPASVSGSPGQSITISCTGTSSDVGGYNYVSWYQQHPGKAPKLMIYEVSNRPSGVSNRFSGSKSGNTASLTISGLQAEDEADYYCSSYDVWVPHMVFGGGTKLTVL |
| binds | ≤ 10 | – | F6 antibody (antibody, human IgG1, V domains shown, also called human IgG1 F6 anti-CD19 antibody) VH: EVQLVQSGAEVKKPGESLKISCKGSGYSFTSYWIGWVRQMPGKGLEWMGIIYPGDSDTRYSPSFQGQVTISADKSISTAYLQWSSLKASDTAMYYCARVWYYDFWSGADAFDIWGQGTLVTVSS VL: EIVMTQSPATLSVSPGERATLSCRASQSVSSNLAWYQQKPGQAPRLLIYGASTRATGIPARFSGSGSGTEFTLTISSLQSEDFAVYYCQQGSLEAPQTFGQGTKVEIK |
